Source: publication PMC2790542

Test system: O=C(O)/C=C\Cl
Experiment: purified protein
Details: active site

“cis-3-chloroacrylic acid dehalogenase (cis-CaaD) (coryneform bacterium)” gave a Km of 200 ± 15 µM, a kcat of 5.9 ± 0.1 s⁻¹ and a kcat/Km of 29000 M⁻¹ s⁻¹.
